Test results as given in patent US20230062308A1, “TREATMENT OF CK8 POSITIVE CANCERS IN RELATION WITH K-RAS GENE STATUS” (INTERNATIONAL - DRUG - DEVELOPMENT - BIOTECH, priority 2017, published 2023).

Assays:
[1] = test system: Human HAN larynx cell line BICR18; assay: In vivo tumour growth, HAN CDX model (larynx cell line BICR18); details: BICR18 s.c. in SCID mice; HzR022 (D-A10) 10 mg/kg i.p. BIW × 3; cisplatin 2.5 mg/kg i.p. QW × 3
Experimental: Human HAN larynx cell line BICR18 was subcutaneously injected in SCID mice, with a concentration of 1.10^6 cells per injection (200 μL). Mice were randomized when the tumours reached a mean volume of about 100 mm^3 for the 9 groups (total 45 mice). […] The endpoint was defined by animal ethics as a tumour diameter of >18 mm, significant weight loss or alteration of animal well-being. In order to assess the effectiveness of the compounds on tumourigenesis, tumour volume was measured two times a week. The size of the primary tumours were measured using calipers and the tumour volume (TV) was extrapolated to a sphere using the formula TV= 4/3π×r^3, by calculating the mean radius from the two measurements. The median and standard deviation were also calculated for each group. Median is preferred to mean in order to exclude the extreme values. MAb treatment was administered by intraperitoneal injection twice a week during three weeks at 10 or 1 mg/kg doses. The cisplatin (Myland) treatment was administered by intraperitoneal injection once per week during three weeks at 1, 2.5 or 5 mg/kg doses. The product was prepared in accordance with the sponsor's guidelines, i.e. diluted in PBS. Mice were sacrificed when the tumours reached a maximum volume of 1600 mm^3. […] The t-test (two-tailed test) was performed on the tumour volume values (mm^3) measured on the day of sacrifice.

CK8 = molecular target: T1, CK8 (Homo sapiens, UniProt P05787); assay: Immunohistochemistry staining on Colorectal PDX xenograft models; assay type: binding; design: from tissue; host or cells: pancreatic cancer PDX tumour tissue (PAN-001, PAN-003, PAN-004, PAN-035); key: 2+ for strong; 1+ for moderate intensity IHC staining
T1 sequence (P05787 1-483): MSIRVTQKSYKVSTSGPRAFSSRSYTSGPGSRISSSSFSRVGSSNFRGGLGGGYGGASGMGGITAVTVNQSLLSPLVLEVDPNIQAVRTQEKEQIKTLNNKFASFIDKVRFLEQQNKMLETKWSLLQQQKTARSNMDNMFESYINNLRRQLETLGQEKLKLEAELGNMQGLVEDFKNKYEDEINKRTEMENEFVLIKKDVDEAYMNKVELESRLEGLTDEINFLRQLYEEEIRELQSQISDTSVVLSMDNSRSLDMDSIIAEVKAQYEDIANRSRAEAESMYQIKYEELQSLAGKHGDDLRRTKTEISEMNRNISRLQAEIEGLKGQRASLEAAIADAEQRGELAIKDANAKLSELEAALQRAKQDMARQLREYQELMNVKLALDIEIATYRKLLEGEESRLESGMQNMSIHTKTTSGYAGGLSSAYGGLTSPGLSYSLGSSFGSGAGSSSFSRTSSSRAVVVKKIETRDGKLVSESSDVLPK
Experimental: This example describes methods to investigate on CK8 cellular expression at the cell surface by Immunohistochemistry. The antigen retrieval (AR) was performed following incubation at 95° C. during 30 min in Sodium Citrate (pH6.0). The MAb anti CK8 was incubated 1 hour at room temperature (RT). The secondary antibody as a goat anti human was incubated at RT during 1 hour then with a rabbit polyclonal anti FITC at RT during 30 min.
All of CRC PDX models expressed the HzR022 (D-A10) epitope detected by IHC. Different IHC scores were observed as 2+ for strong or 1+ for moderate intensity IHC staining.

B1: HzR022 (D-A10): humanized anti-CK8 monoclonal antibody D-A10; VL SEQ ID NO: 14, VH SEQ ID NO: 15 (antibody, V domains shown)
VH: EVQLVESGGGLVQPGGSLRLSCAASGFTFSSYWMSWVRQAPGKGLVWVSDINSDGSSTKYADSVKGRFTISRDNAKNTLYLQMNSLRAEDTAVYYCIAHYSGGGFAYWGQGTLVTVSS
VL: DIVMTQAPLSLPVTPGEPASISCRSSKSLLYSNGYNYLYWFLQKPGQSPQLLIYYMSNLASGVPDRFSGSGSGTDFTLKISRVEAEDVGVYYCMQSLEYPFTFGQGTKLEIK
modifications: VHHzD-A10; VLHzD-A10
[1]
  tumour growth control (tumour volume, FIG. 3): did trigger tumour growth control
CK8; CRC PDX model CR0004
  HzR022 (D-A10) IHC score: 2+
CK8; CRC PDX model CR0012
  HzR022 (D-A10) IHC score: 2+
CK8; CRC PDX model CR0029
  HzR022 (D-A10) IHC score: 2+
CK8; CRC PDX model CR0126
  HzR022 (D-A10) IHC score: 2+
CK8; CRC PDX model CR0196
  HzR022 (D-A10) IHC score: 2+
CK8; CRC PDX model CR0205
  HzR022 (D-A10) IHC score: 1+
CK8; CRC PDX model CR0455
  HzR022 (D-A10) IHC score: 1+
CK8; CRC PDX model CR1530
  HzR022 (D-A10) IHC score: 2+
CK8; CRC PDX model CR3056
  HzR022 (D-A10) IHC score: 1+
CK8; CRC PDX model CR3150
  HzR022 (D-A10) IHC score: 1+
CK8; CRC PDX model CR6254
  HzR022 (D-A10) IHC score: 2+
